Measured values: patent US6333178

Legend:
[1] = biological target: MBP-UmuC fusion protein (maltose binding protein fused to UmuC, DNA polymerase V) (Escherichia coli)
[2] = biological target: DNA polymerase II (Escherichia coli) (UniProt P21189)
[3] = biological target: DNA polymerase III holoenzyme
[4] = biological target: DNA polymerase I (Escherichia coli) (UniProt P00582)

RecA (from UniProt P0A7G6)
Cro- mutation frequency after in vitro gap-filling replication, RecA omitted (Cro- mutation frequency per gene) [1]: 0.00025 | Cro- mutation frequency after gap-filling replication by pol II with UmuD', RecA, SSB (Cro- mutation frequency per gene) [2]: 0.00065 | Cro- mutation frequency after gap-filling replication by pol III holoenzyme with UmuD', RecA, SSB (Cro- mutation frequency per gene) [3]: 0.00081 | Cro- mutation frequency after gap-filling replication by pol I with UmuD', RecA, SSB (Cro- mutation frequency per gene) [4]: 0.00078

SSB (single stranded DNA-binding protein) (from UniProt P0AGE0)
Cro- mutation frequency after in vitro gap-filling replication, SSB omitted (Cro- mutation frequency per gene) [1]: 0.00051 | Cro- mutation frequency after gap-filling replication by pol II with UmuD', RecA, SSB (Cro- mutation frequency per gene) [2]: 0.00065 | Cro- mutation frequency after gap-filling replication by pol III holoenzyme with UmuD', RecA, SSB (Cro- mutation frequency per gene) [3]: 0.00081 | Cro- mutation frequency after gap-filling replication by pol I with UmuD', RecA, SSB (Cro- mutation frequency per gene) [4]: 0.00078

UmuD' (from UniProt P0AG11)
Cro- mutation frequency after in vitro gap-filling replication, UmuD' omitted (Cro- mutation frequency per gene) [1]: 0.00027 | Cro- mutation frequency after gap-filling replication by pol II with UmuD', RecA, SSB (Cro- mutation frequency per gene) [2]: 0.00065 | Cro- mutation frequency after gap-filling replication by pol III holoenzyme with UmuD', RecA, SSB (Cro- mutation frequency per gene) [3]: 0.00081 | Cro- mutation frequency after gap-filling replication by pol I with UmuD', RecA, SSB (Cro- mutation frequency per gene) [4]: 0.00078
